The source of these data is article PMC11624264, “Phosphorylation of P-stalk proteins defines the ribosomal state for interaction with auxiliary protein factors” (EMBO Reports, 2024).

The target of assay [1] is P-stalk of 80S ribosomes from the SDPM yeast mutant strain (S to A mutations within all P-stalk proteins at the C-termini) (S. cerevisiae) (UniProt P05317).
The target in assay [2] is native (phosphorylated) yeast pentameric P-stalk complex ΔuL10(199-312)-(P1A–P2B)-(P1B–P2A) (S. cerevisiae) (UniProt P05317).
Assay [3] concerns the target P-stalk of 80S ribosomes from the SDPM yeast mutant strain (S to A mutations within all P-stalk proteins at the C-termini) (S. cerevisiae), P05317.
The target of assay [4] is native (phosphorylated) yeast pentameric P-stalk complex ΔuL10(199-312)-(P1A–P2B)-(P1B–P2A) (S. cerevisiae), P05317. Nature of the assay: MST; P-stalk complex labelled with RED-tris-NTA on its His tag, 5 nM, titrated with unlabelled eIF5B (dilution series from 1.48 μM); PBS with 0.05% Tween-20 and 1 mg/ml BSA; 25 °C; Monolith NT.115 Pico.
The target of assay [5] is T1, eIF5B (UniProt P39730 1-1002).
T1 construct: translation initiation factor eIF5B; also called trGTPase eIF5B; source: purified as previously described (Blanchet and Ranjan, 2022)
T1 sequence (looked up): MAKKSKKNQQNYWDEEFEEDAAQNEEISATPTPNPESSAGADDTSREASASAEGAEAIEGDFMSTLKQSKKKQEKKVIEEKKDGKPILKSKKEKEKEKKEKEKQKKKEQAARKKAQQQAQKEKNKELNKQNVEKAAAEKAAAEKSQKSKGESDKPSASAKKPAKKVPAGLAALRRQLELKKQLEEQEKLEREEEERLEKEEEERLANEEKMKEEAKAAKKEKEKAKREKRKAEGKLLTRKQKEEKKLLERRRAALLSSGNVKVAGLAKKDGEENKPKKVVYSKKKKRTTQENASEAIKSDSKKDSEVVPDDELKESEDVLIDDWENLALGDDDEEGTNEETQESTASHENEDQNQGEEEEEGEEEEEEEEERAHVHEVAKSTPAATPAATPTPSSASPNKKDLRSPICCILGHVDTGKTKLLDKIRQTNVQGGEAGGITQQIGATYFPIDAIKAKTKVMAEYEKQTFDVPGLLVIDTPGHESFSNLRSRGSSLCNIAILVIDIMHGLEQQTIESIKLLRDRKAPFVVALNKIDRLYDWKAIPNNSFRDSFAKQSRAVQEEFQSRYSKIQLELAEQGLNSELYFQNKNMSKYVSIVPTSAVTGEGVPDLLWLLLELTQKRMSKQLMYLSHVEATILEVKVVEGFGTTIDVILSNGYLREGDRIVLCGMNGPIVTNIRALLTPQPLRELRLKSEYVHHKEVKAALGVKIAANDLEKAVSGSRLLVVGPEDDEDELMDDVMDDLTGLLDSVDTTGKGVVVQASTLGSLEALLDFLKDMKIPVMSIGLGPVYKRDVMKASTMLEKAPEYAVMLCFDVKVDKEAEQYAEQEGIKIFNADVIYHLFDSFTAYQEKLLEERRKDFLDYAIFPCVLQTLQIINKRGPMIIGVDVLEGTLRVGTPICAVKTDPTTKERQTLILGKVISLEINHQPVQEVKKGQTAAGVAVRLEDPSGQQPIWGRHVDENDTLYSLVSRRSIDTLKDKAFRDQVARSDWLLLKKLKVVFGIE
Described as above. The conditions noted are these: both partners purified.

Where “and” joins values, the source holds several entries; their conditions need not be identical. Equal entries are not always repeated.

With “eEF1A (from UniProt P02994 1-458) (enzyme)”, in assay [1], the GTPase activity of eEF1A (0.05 µM, 10 µM GTP) with 0.2 µM 80S ribosomes from the SDPM strain (S to A, dephospho-mimicking P-stalk on the ribosome): average GTPase rate is 0.019 min⁻¹. The molecule also yielded a GTPase activity of eEF1A (0.05 µM, 10 µM GTP) with 0.2 µM 80S ribosomes from the WT strain (phosphorylated P-stalk on the ribosome): average GTPase rate in assay [2] of 0.008 min⁻¹.

Molecule “eEF2 (from UniProt P32324 1-842) (enzyme)” gave a GTPase activity of eEF2 (0.05 µM, 10 µM GTP) with 0.2 µM 80S ribosomes from the SDPM strain (S to A, dephospho-mimicking P-stalk on the ribosome): average GTPase rate in assay [1] of 0.044 min⁻¹. The same molecule gave a GTPase activity of eEF2 (0.05 µM, 10 µM GTP) with 0.2 µM 80S ribosomes from the WT strain (phosphorylated P-stalk on the ribosome): average GTPase rate in assay [2] of 0.019 min⁻¹.

B1: eIF5B, P39730 1-1002 (enzyme)
chain: T1 sequence (looked up)
B1 came in with a GTPase activity of eIF5B (0.05 µM, 10 µM GTP) with 0.2 µM 80S ribosomes from the SDPM strain (S to A, dephospho-mimicking P-stalk on the ribosome): average GTPase rate in assay [3] of 0.02 min⁻¹. In addition, the Kd (as a rule, the concentration at which binding is half-saturated) in assay [4] was 11.2 µM.

B2: AP-treated (dephosphorylated) yeast pentameric P-stalk complex ΔuL10(199-312)-(P1A–P2B)-(P1B–P2A) (complex, S. cerevisiae)
chain 1: SSILDITDEELVSHFVSAVSTIASISLAIGYPTLPSVGHTLINNYKDLLAVAIAASYHYPEIEDLVDRIENPEKYAAAAPAATSAASGDAAPAEEAAAEEEEESDDDMGFGLFD
chain 2: MSTESALSYAALILADSEIEISSEKLLTLTNAANVPVENIWADIFAKALDGQNLKDLLVNFSAGAAAPAGVAGGVAGGEAGEAEAEKEEEEAKEESDDDMGFGLFD
chain 3: MKYLAAYLLLVQGGNAAPSAADIKAVVESVGAEVDEARINELLSSLEGKGSLEEIIAEGQKKFATVPTGGASSAAAGAAGAAAGGDAAEEEKEEEAKEESDDDMGFGLFD
chain 4: MSDSIISFAAFILADAGLEITSDNLLTITKAAGANVDNVWADVYAKALEGKDLKEILSGFHNAGPVAGAGAASGAAAAGGDAAAEEEKEEEAAEESDDDMGFGLFD
chain 5: MKYLAAYLLLNAAGNTPDATKIKAILESVGIEIEDEKVSSVLSALEGKSVDELITEGNEKLAAVPAAGPASAGGAAAASGDAAAEEEKEEEAAEESDDDMGFGLFD
notes: ribosomal P-stalk protein P1A, S. cerevisiae; ribosomal P-stalk protein P2B, S. cerevisiae; ribosomal P-stalk protein P1B, S. cerevisiae; ribosomal P-stalk protein P2A, S. cerevisiae; For MST the complex was labelled with RED-tris-NTA on the His tag; also called dephospho P-stalk; dephospho-P-stalk complex; copies: + + + +
For B2, the Kd in assay [5] was 4.6 µM and 4.5 µM.
